In patent US10253076B2, “Peptides and combination of peptides for use in immunotherapy against ovarian cancer and other cancers” (immatics biotechnologies GmbH, priority 2015, dated 2019):

biological target: HLA-A*02:01 (Homo sapiens, UniProt P04439, D140Y/D185E/D98H/E176V/E277Q/G131W/G231S/I119V/I121R/I166T/I218V/L300P/L318F/N151K/N90K/P208A/P217A/Q86G/Q94H/R138H/R169H/T345S); experiment: MHC binding assay (UV-ligand exchange, beta2m ELISA, peptide exchange yield); conditions: binding of HLA-class I restricted peptides to HLA-A*02:01, ranged by peptide exchange yield (UV-ligand exchange, β2m ELISA)
How it was run: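 Readout is a β2m ELISA: stabilized complexes captured on streptavidin, detected with HRP-conjugated anti-β2m and TMB at 450 nm, reporting peptide exchange yield. Complexes come from UV-light cleavage of a conditional ligand in HLA-A*02:01 and replacement by the candidate peptide, samples diluted 100-fold.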

Substance | Peptide exchange
205 (SLYPGTETMGL; listed as Homo sapiens) [compound 205] | ″+++″ (≥50% = +++)
217 (ALIHPVSTV; listed as Homo sapiens) [compound 217] | ″++″ (≥20% = ++)
383 (ALLELENSVTL; listed as Homo sapiens) [compound 383] | ″+++″ (≥50% = +++)
601 (SAFPFPVTV; listed as Homo sapiens) [compound 601] | ″+++″ (≥50% = +++)
139 (SVMEVNSGIYRV; listed as Homo sapiens) [compound 139] | ″+++″ (≥50% = +++)
444 (GLLRDEALAEV; listed as Homo sapiens) [compound 444] | ″+++″ (≥50% = +++)
75 (GLLEVMVNL; listed as Homo sapiens) [compound 75] | ″+++″ (≥50% = +++)
506 (KLLGKVETA; listed as Homo sapiens) [compound 506] | ″+++″ (≥50% = +++)
10 (FLATFPLAAV; listed as Homo sapiens) [compound 10] | ″++++″ (≥75% = ++++)
46 (ILTEENIHL; listed as Homo sapiens) [compound 46] | ″+++″ (≥50% = +++)
211 (LLWPGAALL; listed as Homo sapiens) [compound 211] | ″++″ (≥20% = ++)
93 (LLQAIKLYL; listed as Homo sapiens) [compound 93] | ″++″ (≥20% = ++)
285 (QLLHVGVTV; listed as Homo sapiens) [compound 285] | ″+++″ (≥50% = +++)
39 (SVAPNLPAV; listed as Homo sapiens) [compound 39] | ″+++″ (≥50% = +++)
524 (ALIENLTHQI; listed as Homo sapiens) [compound 524] | ″++″ (≥20% = ++)
616 (VLIDEVESL; listed as Homo sapiens) [compound 616] | ″+++″ (≥50% = +++)
355 (SIQQSIERLLV; listed as Homo sapiens) [compound 355] | ″++″ (≥20% = ++)
596 (ALLDQTKTLAESAL; listed as Homo sapiens) [compound 596] | ″+++″ (≥50% = +++)
478 (YLLHEKLNL; listed as Homo sapiens) [compound 478] | ″+++″ (≥50% = +++)
137 (TLVLTLPTV; listed as Homo sapiens) [compound 137] | ″++++″ (≥75% = ++++)
320 (KMFEFVEPLL; listed as Homo sapiens) [compound 320] | ″++++″ (≥75% = ++++)
321 (GLFEDVTQPGILL; listed as Homo sapiens) [compound 321] | ″++++″ (≥75% = ++++)
81 (FLFSQLQYL; listed as Homo sapiens) [compound 81] | ″++″ (≥20% = ++)
219 (KLSDIGITV; listed as Homo sapiens) [compound 219] | ″+++″ (≥50% = +++)
296 (FMEGAIIYV; listed as Homo sapiens) [compound 296] | ″+++″ (≥50% = +++)

Second part, the substance after the results:

Peptide exchange | Substance
″+++″ (≥50% = +++) | 549 (AMLENASDIKL; listed as Homo sapiens) [compound 549]
″+++″ (≥50% = +++) | 367 (SLQNHNHQL; listed as Homo sapiens) [compound 367]
″+++″ (≥50% = +++) | 34 (ILVEADSLWVV; listed as Homo sapiens) [compound 34]
″++″ (≥20% = ++) | 318 (GLINTGVLSV; listed as Homo sapiens) [compound 318]
″+++″ (≥50% = +++) | 152 (ILFEDIFDV; listed as Homo sapiens) [compound 152]
″++″ (≥20% = ++) | 273 (NLFQSVREV; listed as Homo sapiens) [compound 273]
″+++″ (≥50% = +++) | 264 (SLQEQLHSV; listed as Homo sapiens) [compound 264]
″++″ (≥20% = ++) | 393 (GLLDTQTSQVLTA; listed as Homo sapiens) [compound 393]
″+++″ (≥50% = +++) | 366 (RLLDMGETDLML; listed as Homo sapiens) [compound 366]
″++″ (≥20% = ++) | 615 (VLPPDTDPA; listed as Homo sapiens) [compound 615]
″+++″ (≥50% = +++) | 401 (ILLDDTGLAYI; listed as Homo sapiens) [compound 401]
″+++″ (≥50% = +++) | 356 (KLLGKLPEL; listed as Homo sapiens) [compound 356]
″+++″ (≥50% = +++) | 72 (SLLELDGINL; listed as Homo sapiens) [compound 72]
″++″ (≥20% = ++) | 146 (SLATAGDGLIEL; listed as Homo sapiens) [compound 146]
″+++″ (≥50% = +++) | 543 (GLLPTPITQQASL; listed as Homo sapiens) [compound 543]
″+++″ (≥50% = +++) | 575 (YLISQVEGHQV; listed as Homo sapiens) [compound 575]
″+++″ (≥50% = +++) | 240 (ILLEQAFYL; listed as Homo sapiens) [compound 240]

Peptide exchange | Substance
″++++″ (≥75% = ++++) | 347 (SLFKHDPAAWEA; listed as Homo sapiens) [compound 347]
″+++″ (≥50% = +++) | 164 (ALLPQPKNLTV; listed as Homo sapiens) [compound 164]
″+++″ (≥50% = +++) | 529 (LLADELITV; listed as Homo sapiens) [compound 529]
″++″ (≥20% = ++) | 180 (FQIDPHSGLVTV; listed as Homo sapiens) [compound 180]
″++″ (≥20% = ++) | 403 (KLYDRILRV; listed as Homo sapiens) [compound 403]
″++++″ (≥75% = ++++) | 527 (FLLEPGNLEV; listed as Homo sapiens) [compound 527]
″+++″ (≥50% = +++) | 495 (FIFSEKPVFV; listed as Homo sapiens) [compound 495]
″++++″ (≥75% = ++++) | 348 (ILLDVKTRL; listed as Homo sapiens) [compound 348]
″+++″ (≥50% = +++) | 336 (ILLTAIVQV; listed as Homo sapiens) [compound 336]
″+++″ (≥50% = +++) | 583 (ILANDGVLLAA; listed as Homo sapiens) [compound 583]
″+++″ (≥50% = +++) | 307 (ALPVSLPQI; listed as Homo sapiens) [compound 307]
″++″ (≥20% = ++) | 580 (LLMENAERV; listed as Homo sapiens) [compound 580]
″+++″ (≥50% = +++) | 163 (ALDEMGDLLQL; listed as Homo sapiens) [compound 163]
″+++″ (≥50% = +++) | 448 (NLLETKLQL; listed as Homo sapiens) [compound 448]
″+++″ (≥50% = +++) | 357 (SMHDLVLQV; listed as Homo sapiens) [compound 357]
″+++″ (≥50% = +++) | 446 (QLIPALAKV; listed as Homo sapiens) [compound 446]
